Measurements from the DeepSol protein solubility set.

Test: soluble on expression in E. coli; label from the status in PepcDB or PDB records

| Sequence | soluble on expression in E. coli |
| --- | --- |
| MWSTIFFVFSTFVLIVDSGSVGLCRTECIEQNSRKIVRVHLKDQLVMAGLCNNNTQQTGSIVTPYVCHRNIGLWTLDELDEEGTVKFETLCPTPEQYPLELRATCPRVDAQHDDTPNEMDIDDYPNSGDTPLSVV | not soluble |
| AFLNKHFAKKNHNISVDELSHALELTDKAELTEENNILEGIIRFGGETAKEVMTSRLDVVDLDIRTPFKDVIQCIIDNAYSRIPIYSGTRDNIKGVLYIKDLLPHLNKGDNFRWQSLIRPAYFVPETKMIDDLLRDFQANKIHIAIVVDEFGGTSGIVTMEDIIEEIVGEIHDEYDD | soluble |
| PRAAARGGGGDAGTRGRGFVQAGRGAPMAECGRGGAAGGALPTSPGPALGAKGALKAGVGEGGGGGGRLGHGRARYDSGGVSNGDCSLGVSGDEARASPTRGPRGVALAPTPSAVVCTLPRESKPGGLPRRSSIIKDGTKQKRERKKTVSFSSMPTEKKISSASDCINSMVEGSELKKVRSNSRIYHRYFLLDADMQSLRWEPSKKDSEKAKIDIKSIKEVRTGKNTDIFRSNGISDQISEDCAFSVIYGENYESLDLVANSADVANIWVTGLRYLISYGKHTLDMLESSQDNMRTSWVSQMFSEIDVDNLGHITLCNAVQCIRNLNPGLKTSKIELKFKELHKSKDKAGTEVTKEEFIEVFHELCTRPEIYFLLVQFSSNKEFLDTKDLMMFLEAEQGVAHINEEISLEIIHKYEPSKEGQEKGWLSIDGFTNYLMSPDCYIFDPEHKKVCQDMKQPLSHYFINSSHNTYLIEDQFRGPSDITGYIRALKMGCRSVELDVWDGPDNEPVIYTGHTMTSQIVFRSVIDIINKYAFFASEYPLILCLENHCSIKQQKVMVQHMKKLLGDKLYTTSPNVEESYLPSPDVLKGKILIKAKKLSSNCSGVEGDVTDEDEGAEMSQRMGKENMEQPNNVPVKRFQLCKELSELVSICKSVQFKEFQVSFQVQKYWEVCSFNEVLASKYANENPGDFVNYNKRFLARVFPSPMRIDSSNMNPQDFWKCGCQIVAMNFQTPGLMMDLNIGWFRQNGNCGYVLRPAIMREEVSFFSANTKDSVPGVSPQLLHIKIISGQNFPKPKGSGAKGDVVDPYVYVEIHGIPADCAEQRTKTVHQNGDAPIFDESFEFQINLPELAMVRFVVLDDDYIGDEFIGQYTIPFECLQTGYRHVPLQSLTGEVLAHASLFVHVAITNRRGGGKPHKRGLSVRKGKKSREYASLRTLWIKTVDEVFKNAQPPIRDATDLRENMQNAVVSFKELCGLSSVANLMQCMLAVSPRFLGPDNTPLVVLNLSEQYPTMELQGIVPEVLKKIVTTYDMMIQSLKALIENADAVYEKIVHCQKAAMEFHEHLHSIGTKEGLKERKLQKAVESFTWNITILKGQADLLKYAKNETLENLKQIHFAAVSCGLNKPGTENADVQKPRRSLEVIPEKANDETGE | soluble |
| MGSDKIHHHHHHMPIIATAAWSIPKKVADRFAQGGSSLTRYASVFDGVEVNSTFYRRHKTSTFATWEHSVPDAFRFAVKIPKEITHTSAMRDIAEPFDTFLEDIAPLGEKRGPLLCQLPPSLTFDVEVLQTAFKTMRDADDGPIVIEVRHKSWASAEALDLLKTYRIDRVLADPAPVWPVEDFDTPPKYVRLHGKPKIYYSSYTDDEIKSFSALLAPDSWCVFDNTASGAAIENALNMAEIR | not soluble |
| MPKLPRIDFYFDVISPYSYIAFEVFQKLETQWKGVTIRYIPFFLGAVMKESGNRPPAMLPARSIMMMTDLKRTAKFWDIPLTPPPLFMEWIKKYRTTGAMKVLLVLQEQDKELMLRAAREMWVRLWSRSEKIFEDQDFVEVLKAVGVKNPEQIVEKSKDEKYIKILMENTNKGVDLMAYGAPWINVHTEDGSEHSFFGSDRFHLIADLLQQPQPLPDRLFGQKSKL | not soluble |
| MVESGKAQMESFRIDNNGIQKKSRTKFIAGVGKSLRSAKNLTSKTVQTQFVAYPELAQLLPIFPAERLKKLILNGLDGQEYKQLIDLDQWKQARIFHGYAENLIIPIEKFFHFERFDVHLARFTEADALRLRAMIDRSAHFGFAGICCNYMNNSALKRIFNVEHENFYQTPDERSFDVQCRPGEISITKFGYTVE | not soluble |
| MGSDKIHHHHHHMKDWWQATFPNGRQTLIITDAKGYPVEISYGEKGKGKPLILLHGMGSWSYNWRHSVTELSKYFRVICFDAKGFGFSEKPLSRREHNGHQVIEFQRIIQALCDEPAVIVAESLGGLVALALAQENPQLIGQLVVVNVPVFAKRLPHWAMGLLAQTPLEIIQTIDSLRLAYFFAPLLREIMAIERRGVLFDPSILTKEDVYWITYPFIEFPGTLVKVAEELQIAAREIENWQADKPNMLTKIQNKLSIIKCPTLVLWGDQDSWFPATHGEKLHQHIPNSKLKILSNCYHDASTGASKELNAAILEFLRDGNTVLRSLDS | not soluble |
| MAKHGADEPSSRSGSPDREGRASEDRSLLHQRLAVRELIDTEVSYLHMLQLCASDIRSRLQQLPQGDLDVLFSNIDDIIKVNSRFLHDLQETASKEEEQVQLVGNIFLEFQEELEQVYKVYCASYDQALLLVDTYRKEPELQRHIQGIVEAVVPQAGSSGLSFLLVIPLQRITRYPLLLQKILENTVPDASAYPVLQRAVSALQDVNTNINEYKMRKEVASKYTKVEQLTLRERLARINTHTLSKKTTRLSQLLKQEAGLIPRTEDKEFDDLEERFQWVSLCVTELKNNVAAYLDNLQGAVGFYHWLTPTQMIDGLALGESTPGPLIMVVAFVGFLAAYNHSLLGAEHQFIAVLQDVRDHRITQVRAAEILNLSTRQITRLLQKLNQDGVSGLAHASRGQPGHHRHDELLKSKCLSIISEHLLGFGPTLAHEKLSSIFDLNIPVETVRRWMMANDLWIPRSKRLKRPYQPRYNRDCFGELIQIDGSYHDWFEGRAAKCCLLVYIDDATGKLLHLRFCEAETTFDYMLSTRAYIEQYGKPLAFYSDKHSVFRVNQKSRKDSQITQFGRILNELNIDIIFANSPQAKGRVERANRTLQDRLIKEMRLEGISSIAEANAWLPCFIEHFNQKFAKCARNSKNLHRSLTESDAELEDIFTWQEPRKVTKNLTITYDKCIYLLEPTELNHKLVGQYISFLEYPDGTVALMHEGRKINYSVFNKLAGLQQNEVVENKRLGSVLAHIQQQHEELEKQNKRSRLKKSMPSRKAQKAVIEQRKLNPVLDSCG | soluble |
| MKAMPIDDPIDGYVAELSRALHGPRRAKRDLIAEVRDGLIDAAEAYQAAGLDRPEAERRAVAEFGTVGEIAPGLQEELAAATGQRLGALLFLSAPRSPGT | not soluble |
| MEALILEPSLYTVKAILILDNDGDRLFAKYYDDTYPSVKEQKAFEKNIFNKTHRTDSEIALLEGLTVVYKSSIDLYFYVIGSSYENELMLMAVLNCLFDSLSQMLRKNVEKRALLENMEGLFLAVDEIVDGGVILESDPQQVVHRVALR | soluble |
| MTDNNTALKKAGLKVTLPRLKILEVLQEPDNHHVSAEDLYKRLIDMGEEIGLATVYRVLNQFDDAGIVTRHNFEGGKSVFELTQQHHHDHLICLDCGKVIEFSDDSIEARQREIAAKHGIRLTNHSLYLYGHCAEGDCREDEHAHEGK | soluble |
| MGSDKIHHHHHHMKIVAIDTSTKQLSVALSDGQQILAEASYVTSLNHATKLMPLLERMMQEVNWSPRDLTRIVIADGPGSYTGLRIGATTAKTLAYTLGIDLVPVSTLELMAASAGSTGRIVAIQDARRGTGFVGFYEEGQLVGEEQHTVIADFVKTLPTDTKITGDTDKFTTELQSFTIVDPAFRAPRAGVLALLGAKREPVETHAFEPRYLRLAEAEAKWIEAQRHD | not soluble |
| MSLADPGREGHLEQRILQVLTEAGSPVKLAQLVKECQAPKRELNQVLYRMKKELKVSLTSPATWCLGGTDPEGEGPAELALSSPAERPQQHAATIPETPGPQFSQQREEDIYRFLKDNGPQRALVIAQALGMRTAKDVNRDLYRMKSRHLLDMDEQSKAWTIYRPEDSGREGHHHHHH | soluble |
| AFSGTWQVYAQENYEEFLKALALPEDLIKMARDIKPIVEIQQKGDDFVVTSKTPRQTVTNSFTLGKEADITTMDGKKLKCTVHLANGKLVTKSEKFSHEQEVKGNEMVETITFGGVTLIRRSKRV | soluble |
| MGSDKIHHHHHHMGNVIVVTSGKGGVGKTTITANLGCALAKLGEKVCLIDADIGLKNLDIVLGLENRIVYTMIDVVNGKVSPQEALVKHKMLKNLYLLPASQIATKEMISPNDMKAIVKELIPHFDYIIIDSPAGIERGFRNAVAPAERVLVVTTPELPAISDADRVIGLLENFGFSDEKINVIINRFKPHMVKKGEMLTTDDIKHTLSLEIIAVIPDSEDIIVASNTGIPVSLNGNSRISKNFENLARRIRGEGVPLENDFVTVSKGLIDTLKDFFSKLKRG | not soluble |
| MDAKHIEKVFVKKVPAKSNKAQVKYPFDENSVNVLIIGLDKASNRSTYDLHRTDTILFLNINFKDKKVKGISIPRDTLTEIYKVGKWDKINSAFGYGGGEKEEGFFYTMETVSKLLGGMPIEYYVGFDLDAVRKVVNILGGVYVNVEVPVKVKTKWVNIDLKPGYQKLNGIETLYYALWRKTPGGDIDRIKRDKELILSVFEQLKESNKIITLPEIYWKIRRHFYTNLSLQQITSLAYFAQNMKKEDIVFESIPGDYFNYMGVSYWKPDYEGIKKLVKDLFGYDIEIDLKMPEKYKYARRIIVKAKKENNISYSHTNKSYSTESSQNQNSQSNSEVNLVQKQTETIENSTQSSSPFDAQWRNSSEDTQTLPPENDSQTTQGTQQQQATTESEIQVDTPSTSSDVVSNVYGGRLEHHHHHH | soluble |
| MRALPICLVALMLSGCSMLSRSPVEPVQSTAPQPKAEPAKPKAPRATPVRIYTNAEELVGKPFRDLGEVSGDSCQASNQDSPPSIPTARKRMQINASKMKANAVLLHSCEVTSGTPGCYRQAVCIGSALNITAKLEHHHHHH | not soluble |
| MGSDKIHHHHHHMSVTQIVTSEDILLKLCHSVSHVLSHTSGSRVTHAAMVQNISSTRLKPDLGCFSIFDGGFSGLVVINFSAASAVEIYRRYMLNMGMPESDLAFSHNSDEVGNVMGELMNQILGDFIGKVSKELQTSISQSQPKMLTINKEITISIDANLDEPVIRRVSFMTESNHIFYLEFAMDKTEFVKTREFELDEEFDPDFLIEQHGNTRSPWSQMAGKGIVADDADDLLDELGI | not soluble |
| NAIQWVEHTDRVINNTNRSMKLSIDMETGMRGFLLTGDQHFLDPYEIAKPLLVAELNGLQDLVKDNPTQQDRFRRLFTMQQEWNVFAQDMIDLRRNNGDFQTPVLAGRGKRITDQIRTEYEQAVEMEQQLRLTRNAE | not soluble |
| AAPYRCPLCRAGCPSLASMQAHMRGHS | soluble |
| MSQEDLELFQQMMGDVKTITHDTVELKKAHQVTEAQLAKREAAVSLADHDPEALSIDHAPMLKPDDMLEFKRDGVQDGVYRKLRLGKYPIQARLDLHRKTLKEARSEVIQFIRQCMAMDIRTLLIVHGRGERSTPPALMKSFVSHWLTQISEVQCAHSAQRLHGGTGAVYVLLRKSAEKKAENRERHQKRLG | not soluble |
| MIDMALTDDIILLGQVPLFAGFSDDQLRLIAFGAERRRVSAGQILFREHSPAECAFAVTSGHFELFTAGRDGKPLLQATPGKGALLSELALFTLCERKFTAVAVEDSEVIRITRILFHRLVEEFPEVADIVSARIRDNIAALAAGAARLQNRFV | not soluble |
